From patent publication US7838288B2, “Modulators of odorant receptors” (Duke University, priority 2004, dated 2010)

How the values were obtained:
Type in all cases: cell-based, mouse
OR-S6/S79 = assay: CRE-luciferase reporter gene assay, OR-S6/S79; conditions: 293T cells expressing RTP1 variant
Method: Four ORs (S6/79, S18, S46 and S50) previously assayed using other techniques (see, e.g., Malnic, B., et al. (1999) Cell 96, 713-723; herein incorporated by reference in its entirety) were tested against an assay panel of aliphatic alcohols, aldehydes and acids and some other odorants. Additionally, five “orphan” class I ORs (MOR23-1, MOR31-4, MOR31-6, MOR32-5 and MOR32-11) whose cognate ligands were unknown were tested. At a suprathreshold concentration of 100 uM, all these ORs were odorant selective, responding to only a small subset of the odorants tested (see FIG. 11A). This specificity was retained at lower, more physiologically relevant concentrations. Many of these ORs responded to odorants present in micromolar concentrations. The cell-surface expression of these ORs by living-cell immunofluorescence were evaluated. Some ORs (S18, MOR31-4, MOR31-6 and MOR32-5) were strongly expressed while other ORs (S6, S50, MOR23-1, MOR32-11) were weakly expressed (see FIG. 12). The present invention is not limited to a particular mechanism. Indeed, an understanding of the mechanism is not necessary to practice the present invention. […] Finally, two additional orphan class II ORs, MOR203-1 and olfr62, were tested against a panel of 139 odorants. […] Olfr62 responded to coumarine and piperonal (see FIG. 11C). […] When parental 293T cells for these ORs were used in this luciferase assay, little or no response to the odorants was observed. The present invention is not limited to a particular mechanism. Indeed, an understanding of the mechanism is not necessary to practice the present invention.
An expression system has been established that permits rapid identification of ligands for ORs. This system was tested with twelve ORs. Four of the tested ORs (S6/S79, S18, S46, and S50) were expressed in single olfactory neurons responding to aliphatic odorants (see, e.g., Malnic, B., et al. (1999) Cell 96, 713-723; herein incorporated by reference in its entirety). The response profiles of OR-S50, but not that of OR-S18 agreed with the previous report (see, e.g., Malnic, B., et al. (1999) Cell 96, 713-723; herein incorporated by reference in its entirety). […] In experiments conducted during the course of the present invention, OR-S6/S79 responded to nonanedioic acid but not to heptanoic acid or octanoic acid. The present invention is not limited to a particular mechanism. […] When multiple single olfactory neurons that expressed the same OR were recorded against the same set of odorants using calcium imaging, their response profiles were similar but different (see, e.g., Bozza, T., et al. (2002) J Neurosci 22, 3033-3043; herein incorporated by reference in its entirety).
Dual-Glo system (Promega) for luciferase assay was used. […] Luminescence was measured using Wallac Victor 1420 (Perkin-Elmer). […]

olfr62 = assay: Living-cell staining of cell-surface olfr62; conditions: accessory protein co-transfected in 293T cells
Method: The proteins encoded by these clones were named REEP1, for Receptor Expression Enhancing Protein 1 and RTP1, for Receptor Transporting Protein 1. Subsequently, RTP2 was found, a close relative of RTP1. […] Next, REEP1, RTP1, and RTP2 were tested to detect a similar effect in promoting cell-surface expression of other ORs. Four different ORs (mouse OREG, mouse olfr62, mouse OR-S46 and rat I7) were expressed in 293T cells with or without REEP1, RTP1, or RTP2. […] Additionally, ORs transfected with REEP and/or RTP generated more immunofluorescent cells and stronger signals in positive cells compared with ORs without REEP and/or RTP (see FIG. 2A). The signal intensity and the number of immunopositive cells varied when using different ORs at each condition. […] Nonetheless, occasional immunopositive cells were observed only when the accessory proteins were co-expressed. The effects of RTP1 or RTP2 were consistently more robust than that of REEP1. The enhancement of cell-surface expression was specific for ORs and not for other GPCRs: neither REEP and/or RTP enhanced expression of the β2 adrenergic receptor, mT2R5 (a mouse bitter taste receptor) (see, e.g., Chandrashekar, J., et al. (2000) Cell 100, 703-711; herein incorporated by reference in its entirety), or a V2R pheromone receptor (VR4) (see, e.g., Matsunami, H., and Buck, L. B. (1997) Cell 90, 775-784; herein incorporated by reference in its entirety) (see FIG. 2A and FIG. 3). Finally, enhancement of cell-surface expression of MOR203-1 was not observed when other members of the REEP and RTP families (REEP2 and RTP4) were co-expressed.
293T cells were maintained in minimal essential medium containing 10% fetal bovine serum (M10). Lipofectamine 2000 (Invitrogen) was used for transfection. In live-cell staining, 16 hours after transfection, cells were incubated in M10 containing anti rhodopsin antibody, 4D2 (see, e.g., Laird, D. W., and Molday, R. S. (1988) Invest Opthalmol V is Sci 29, 419-428; herein incorporated by reference in its entirety) and 15 mM NaN3 at 4 degrees C. for 1 hour. After washing, cells were incubated with Cy3-conjugated anti mouse IgG (Jackson Immunologicals), washed and mounted. For FACS analysis, 4D2 and PE-conjugated anti mouse IgG (Jackson Immunologicals) were used to monitor the Rho tagged receptor expression. Anti HA rabbit antibodies (Sigma) and Alexa 488 conjugated anti rabbit IgG (Molecular Probes) was used to stain the HA-β2 adrenergic receptor. To establish the Hana3a cells, 1 ug/ml of puromycin was used for selection. 96 colonies were picked and assayed using luciferase assay using OREG.

OREG = assay: Living-cell staining of cell-surface OREG; conditions: accessory protein co-transfected in 293T cells
Method: The proteins encoded by these clones were named REEP1, for Receptor Expression Enhancing Protein 1 and RTP1, for Receptor Transporting Protein 1. Subsequently, RTP2 was found, a close relative of RTP1. […] Next, REEP1, RTP1, and RTP2 were tested to detect a similar effect in promoting cell-surface expression of other ORs. Four different ORs (mouse OREG, mouse olfr62, mouse OR-S46 and rat I7) were expressed in 293T cells with or without REEP1, RTP1, or RTP2. […] Additionally, ORs transfected with REEP and/or RTP generated more immunofluorescent cells and stronger signals in positive cells compared with ORs without REEP and/or RTP (see FIG. 2A). The signal intensity and the number of immunopositive cells varied when using different ORs at each condition. […] Nonetheless, occasional immunopositive cells were observed only when the accessory proteins were co-expressed. The effects of RTP1 or RTP2 were consistently more robust than that of REEP1. […]

B1: RTP1-A1: RTP1 variant from deleting portions of RTP1-A; murine SEQ ID NO: 46, human SEQ ID NO: 47 (protein, listed as Mus musculus)
chain: MCKSVTTGEWKKVFYEKMEEVKPADSWDFIIDPNLKHNVLAPGWKQYLELHASGRFHCSWCWHTWQSPHVVILFHMYLDKAQRAGSVRMRVFKQLCYECGTARLDESSMLEENIESLVDNLITSLREQCYGERGGHYRIHVASRQDNRRHRGEFCEACQEGIVHWKPSEKLLEEEATTYTFSRAPSPTKPQAETGSGCNFCSIPWCLFWATVLMLIIYLQFSFRTSV
S6 activity as indicated by luciferase expression (OR-S6/S79): Increased enhancement
cell-surface expression of olfr62 (olfr62): Increased cell-surface staining
cell-surface expression of OREG (OREG): Increased cell-surface staining
